According to PMC12188478, “Leveraging the Aminothiol-Specific Phosphorogenic Response of Iridium(III) Thioester Complexes for the Development of Intracellular Sensors and Cancer Phototherapeutics” (JACS Au, 2025):
Peptide text beside a SMILES is read from it. * marks the point of attachment. X1 = Cc1cc[n+]2c(c1)-c1cc(C(=O)*)cc[n+]1[Ir-3]213([c]2c(sc4ccccc24)-c2c4ccccc4cc[n+]21)[c]1c(sc2ccccc12)-c1c2ccccc2cc[n+]13; Isonicotinoyl(2-(4-Me-2-Py)) = Cc1ccnc(-c2cc(C(=O)*)ccn2)c1

How the values were obtained:
[1] = Reaction kinetics with L-Cys by HPLC; details: potassium phosphate buffer (50 mM, pH 7.0)/DMSO (3:2, v/v), TCEP 250 μM, 298 K
Description: The reactivity of the thioester complexes 1a–4a toward N-Cys-containing biomolecules in potassium phosphate buffer (50 mM, pH 7.0)/DMSO (3:2, v/v) containing tris(2-carboxyethyl)-phosphine (TCEP) (250 μM) at 298 K (Scheme ) were investigated using L-Cys as a model. […] The formation of the conjugation products 1a-Cys–4a-Cys was validated by ESI-MS analyses (Figure S7). The isolated conjugate 1a-Cys was further characterized by 1D and 2D COSY ^1H NMR. The signals at δ = 8.18 and 1.89 ppm in the ^1H NMR spectra (Figures S8 and S9) correspond to the CONH and SH protons, respectively, confirming the successful labeling of L-Cys with the thioester complex via the NCL reaction involving transthioesterification and an S → N acyl shift. […]
All reactions were performed on a 100-µL scale. The reaction kinetics of the thioester complexes 1a – 4a (20 µM) and ligand bpy-COSBn (100 µM) with L-Cys (25 µM for the complexes and 250 µM for the ligand) in potassium phosphate buffer (50 mM, pH 7.0)/DMSO (3:2, v/v) containing TCEP (250 µM) at 298 K was measured by reversed-phase high-performance liquid chromatography (RP-HPLC). The reactions at different time points were quenched by the addition of 900 µL of cold H2O/CH3CN (1:1, v/v) and then analyzed by RP-HPLC. […] The second-order rate constants (k2) were determined by fitting the data to the following equation: […]

MDA-MB-231 cells [2] = test: Cellular uptake mechanism studies (ICP-MS); assay type: cell-based; details: 10 μM
Description: Conjugate 3a-CASP: MDA-MB-231 cells were seeded in a 35-mm tissue culture dish and incubated at 37 °C under a 5% CO2 atmosphere for 48 h. The culture medium was removed and replaced with conjugate 3a-CASP (10 μM) in medium/DMSO (99:1, v/v) at 37 °C under a 5% CO2 atmosphere for 4 or 16 h. In the low-temperature experiments, the cells were preincubated at 4 °C for 1 h prior to incubation with conjugate 3a-CASP (10 μM) in medium/DMSO (99:1, v/v) […]. In the chemical inhibition experiments, the cells were pretreated with EIPA (50 μM) for 1.5 h, Me-β-CD (5 mM) for 1 h, or chlorpromazine (30 μM) for 1 h at 37 °C under a 5% CO2 atmosphere. The cells were then washed with PBS (1 mL × 3) and incubated with conjugate 3a-CASP (10 μM) in medium/DMSO (99:1, v/v) at 37 °C under a 5% CO2 atmosphere for 16 h.
Conjugate 3a-CYNT: MDA-MB-231 cells were seeded in a 35-mm tissue culture dish and incubated at 37 °C under a 5% CO2 atmosphere for 48 h. The culture medium was removed and replaced with conjugate 3a-CYNT (10 μM) in medium/DMSO (99:1, v/v) at 37 °C under a 5% CO2 atmosphere for 16 h. In the CAIX inhibition experiments, the cells were pretreated with acetazolamide (1 mM) at 37 °C under a 5% CO2 atmosphere for 6 h. The cells were then washed with PBS (1 mL × 3) and incubated with conjugate 3a-CYNT (10 μM) in medium/DMSO (99:1, v/v) at 37 °C under a 5% CO2 atmosphere for 16 h.
Conjugate 3a-CMYI: MDA-MB-231 cells were seeded in a 35-mm tissue culture dish and incubated at 37 °C under a 5% CO2 atmosphere for 48 h. The culture medium was removed and replaced with conjugate 3a-CMYI (10 μM) in medium/DMSO (99:1, v/v) at 37 °C under a 5% CO2 atmosphere for 16 h. In the EGFR inhibition experiments, the cells were pretreated with gefitinib (50 μM) at 37 °C under a 5% CO2 atmosphere for 1 h. The cells were then washed with PBS (1 mL × 3) and incubated with conjugate 3a-CMYI (10 μM) in medium/DMSO (99:1, v/v) at 37 °C under a 5% CO2 atmosphere for 16 h.
For all the experiments, after incubation with the conjugates, the medium was removed, and the cells were washed with PBS (1 mL × 3). The cells were then trypsinized and harvested with PBS (1 mL). The cell numbers were measured by a Logos Biosystems LUNA-II automated cell counter. The resultant solution was digested with 65% HNO3 (1 mL) at 70 °C for 2 h, allowed to cool to room temperature, and analyzed by a NexION 2000 ICP-MS (PerkinElmer SCIEX Instruments).

HEK-293 cells [3] = test: Cellular uptake by ICP-MS; assay type: cell-based; details: 10 μM, 37 °C, 16 h
Description: (§1) HeLa or HEK-293 cells were seeded in a 35-mm tissue culture dish and incubated at 37 °C under a 5% CO2 atmosphere for 48 h. The culture medium was removed and replaced with complexes 1a and 3a (10 μM) in medium/DMSO (99:1, v/v) at 37 °C under a 5% CO2 atmosphere for 2 h. After the treatment, the medium was removed, and the cells were washed with PBS (1 mL × 3). The cells were then trypsinized and harvested with PBS (1 mL). The cell numbers were obtained by a Logos Biosystems LUNA-II automated cell counter. The resultant solution was digested with 65% HNO3 (1 mL) at 70 °C for 2 h, allowed to cool to room temperature, and analyzed by a NexION 2000 ICP-MS (PerkinElmer SCIEX Instruments). For conjugates 3a-Cys, 3a-CASP, 3a-CYNT, and 3a-CMYI, the procedure was similar to that of complexes 1a and 3a, except that MDA-MB-231, MCF-7, and HEK-293 cells were used and the conjugates were incubated for 16 h instead of 2 h before the measurements.

MDA-MB-231 cells [4] = test: Cellular uptake by ICP-MS; assay type: cell-based; details: 10 μM, 37 °C, 16 h
Description: as §1

MCF-7 cells [5] = test: Cellular uptake by ICP-MS; assay type: cell-based; details: 10 μM, 37 °C, 16 h
Description: as §1

HEK-293 cells [6] = test: MTT (photo)cytotoxicity assay; assay type: cell-based; details: ratio IC50,dark/IC50,light, 24 h incubation
Description: (§2) HeLa or HEK-293 cells were seeded in two 96-well flat-bottomed microplates (ca. 10,000 cells per well) in growth medium (100 μL) and incubated at 37 °C under a 5% CO2 atmosphere for 48 h. The growth medium was removed and replaced with medium/DMSO (100 μL, 99:1, v/v) containing complex 3a with concentrations ranging from 10^–5 to 10^–8 M. Wells containing untreated cells were used as blank control. The microplates were incubated at 37 °C in the dark under a 5% CO2 atmosphere for 2 h. After the treatment, the medium was removed and replenished with phenol red-free growth medium (100 μL). One of the microplates was irradiated at 450 nm (14.6 mW cm^–2) for 10 min with an LED cellular photocytotoxicity irradiator (PURI Materials, Shenzhen, China) and the other microplate was kept in the dark. Then the growth medium was replaced with fresh medium and the cells were further incubated at 37 °C under a 5% CO2 atmosphere for 24 h. The medium in each well was then replaced with fresh medium (90 μL) and 10 μL of MTT (5 mg mL^ –1) in PBS. The microplates were incubated at 37 °C under a 5% CO2 atmosphere for 4 h. The growth medium was then removed, and DMSO (100 μL) was added to each well. After 20 min, the absorbance of the solutions at 570 nm was measured with an Multiskan SkyHigh Microplate Spectrophotometer (Thermo Scientific). The IC50 values of the complex were determined from dose dependence of surviving cells after the treatment using the OriginPro 8.0 software package. For conjugates 3a-CASP, 3a-CYNT, and 3a-CMYI, the procedure was similar to that of complex 3a, except that MDA-MB-231, MCF-7, and HEK-293 cells were used and the conjugates were incubated for 24 h instead of 2 h before irradiation.

MDA-MB-231 cells [7] = test: MTT (photo)cytotoxicity assay; assay type: cell-based; details: ratio IC50,dark/IC50,light, 24 h incubation
Description: as §2

MCF-7 cells [8] = test: MTT (photo)cytotoxicity assay; assay type: cell-based; details: ratio IC50,dark/IC50,light, 24 h incubation
Description: as §2

[9] = 1O2 generation quantum yield; assay type: physicochemical; details: aerated CH3CN/H2O (4:1, v/v), 298 K, λex 450 nm
Description: The ^1O2 generation efficiencies of all complexes were evaluated by monitoring the emission band of ^1O2 centered at ca. […]

SMILES	second-order rate constant (k2) for reaction with L-Cys [1]	reduction of uptake after gefitinib (EGFR inhibitor) pretreatment (MDA-MB-231 cells [2]; 16 h, gefitinib 50 μM, 1 h)	Amount of iridium associated with an average cell (HEK-293 cells [3])	Amount of iridium associated with an average cell (MDA-MB-231 cells [4])	Amount of iridium associated with an average cell (MCF-7 cells [5])	PI (HEK-293 cells [6])	PI (MDA-MB-231 cells [7])	PI (MCF-7 cells [8])	1O2 generation quantum yield (ΦΔ) [9]	decrease in intracellular iridium content at 4 °C (MDA-MB-231 cells [2]; 4 h, 4 °C versus 37 °C)	reduction of cellular uptake efficiency after chlorpromazine pretreatment (MDA-MB-231 cells [2]; 16 h, chlorpromazine 30 μM, 1 h)	reduction of uptake after acetazolamide (CAIX inhibitor) pretreatment (MDA-MB-231 cells [2]; 16 h, acetazolamide 1 mM, 6 h)
Cc1ccnc(-c2cc(C(=O)SCc3ccccc3)ccn2)c1 [bpy-COSBn, S-benzyl 4’-methyl-2,2’-bipyridine-4-carbothioate]	11.3 M^–1 s^–1	–	–	–	–	–	–	–	–	–	–	–
CC[C@H](C)[C@H](NC(=O)[C@H](Cc1ccc(O)cc1)NC(=O)[C@H](CCSC)NC(=O)[C@H](CS)NC(=O)c1cc[n+]2c(c1)-c1cc(C)cc[n+]1[Ir-3]213([c]2c(sc4ccccc24)-c2c4ccccc4cc[n+]21)[c]1c(sc2ccccc12)-c1c2ccccc2cc[n+]13)C(=O)N[C@@H](CCC(=O)O)C(=O)N[C@@H](C)C(=O)N[C@@H](CC(C)C)C(=O)N[C@@H](CC(=O)O)C(=O)N[C@@H](CCCCN)C(=O)N[C@@H](Cc1ccc(O)cc1)C(=O)N[C@@H](C)C(=O)N[C@@H](CS)C(=O)O [Conjugate 3a-CMYI] (X1-CMYIEALDKYAC-OH; C-terminus assumed)	–	~10%	0.033 fmol	0.21 fmol	0.074 fmol	>28	>109	>25	0.20	–	–	–
Cc1ccnc(-c2cc(C(=O)N[C@@H](CS)C(=O)N[C@@H](C)C(=O)N[C@@H](CO)C(=O)N3CCC[C@H]3C(=O)N[C@@H](CO)C(=O)NCC(=O)N[C@@H](C)C(=O)N[C@@H](CC(C)C)C(=O)N[C@@H](CCCNC(=N)N)C(=O)N[C@@H](CO)C(=O)N[C@@H](CS)C(=O)O)ccn2)c1 [Conjugate 3a-CASP] ({Isonicotinoyl(2-(4-Me-2-Py))}-CASPSGALRSC-OH; C-terminus assumed)	–	–	0.074 fmol	1.6 fmol	0.10 fmol	>18	>61	>18	0.24	ca. 70%	ca. 30%	–
Cc1cc[n+]2c(c1)-c1cc(C(=O)N[C@@H](CS)C(=O)N[C@@H](Cc3ccc(O)cc3)C(=O)N[C@@H](CC(N)=O)C(=O)N[C@H](C(=O)N[C@@H](CC(N)=O)C(=O)N[C@@H](Cc3c[nH]cn3)C(=O)N[C@H](C(=O)N3CCC[C@H]3C(=O)N[C@@H](CC(C)C)C(=O)N[C@@H](CO)C(=O)N3CCC[C@H]3C(=O)N[C@@H](CCCCN)C(=O)N[C@@H](Cc3ccc(O)cc3)C(=O)O)C(C)C)[C@@H](C)O)cc[n+]1[Ir-3]213([c]2c(sc4ccccc24)-c2c4ccccc4cc[n+]21)[c]1c(sc2ccccc12)-c1c2ccccc2cc[n+]13 [Conjugate 3a-CYNT] (X1-CYNTNHVPLSPKY-OH; C-terminus assumed)	–	–	0.10 fmol	1.8 fmol	0.10 fmol	>45	>139	>38	0.28	–	–	ca. 20%
